Patent US20240350597A1, “PROTEASE INHIBITORS” (University College Dublin, priority 2023, published 2024)
Positions count from the first letter of the chain named. Entries after “also recorded” stand apart in the source; their conditions may differ.

System: SARS-CoV-2 (WT, D614G)
Assay type: cell-based

B1: B3-WT: Wild type recombinant SerpinB3 (SCCA-1), 44.5 kDa cross-class inhibitor of cysteine proteases including CatL; SEQ ID No. 5 (protein, listed as Homo sapiens)
chain: MNSLSEANTKFMFDLFQQFRKSKENNIFYSPISITSALGMVLLGAKDNTAQQIKKVLHFDQVTENTTGKAATYHVDRSGNVHHQFQKLLTEFNKSTDAYELKIANKLFGEKTYLFLQEYLDAIKKFYQTSVESVDFANAPEESRKKINSWVESQTNEKIKNLIPEGNIGSNTTLVLVNAIYFKGQWEKKFNKEDTKEEKFWPNKNTYKSIQMMRQYTSFHFASLEDVQAKVLEIPYKGKDLSMIVLLPNEIDGLQKLEEKLTAEKLMEWTSLQNMRETRVDLHLPRFKVEESYDLKDTLRTMGMVDIFNGDADLSGMTGSRGLVLSGVLHKAFVEVTEEGAEAAAATAVVGFGSSPTSTNEEFHCNHPFLFFIRQNKTNSILFYGRFSSP
- inhibition of SARS-CoV-2 WT (D614G) infection (in words): reductions in SARS-CoV-2 infection
- inhibition of SARS-CoV-2 replication / infection (50 µM): 50%

B2: B3-TMP: SerpinB3 variant with RCL residues 350 to 354 (P4 to P1′) replaced by IQFRV to inhibit TMPRSS2; SEQ ID No. 6 (protein)
chain: B1 chain with V350I, G351Q, G353R, S354V
- inhibition of SARS-CoV-2 WT (D614G) infection (in words): good dose-dependent downregulation of viral replication; also recorded: greater inhibitor for both viral strains than WT-SerpinB3
- inhibition of SARS-CoV-2 replication: up to 50%
- inhibition of viral replication, full time treatment (50 µM): 93%
- viral inhibition, treatment limited to viral entry (50 µM): up to 70%
